Numbering of substitutions follows the chain as printed.
B1: S009-F3-63.5 (antibody, human IgG1, kappa, V domains shown)
VH: QVQLQQSGAELVRPGASVTLSCKASGYTFTDYEMHWVKQTPVHGLEWIGGIDPETGDTAYNQQFKGKAILTADRSSSTAYMELRSLTSEDSAVYYCTNYASSREDYWGQGTTLTVSS
VL: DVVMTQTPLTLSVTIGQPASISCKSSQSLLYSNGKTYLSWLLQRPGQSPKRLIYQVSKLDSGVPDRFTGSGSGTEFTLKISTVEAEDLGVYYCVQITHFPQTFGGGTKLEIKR
notes: Human-murine chimeric antibody, human IgG1/kappa constant regions
B2: S009-F3.74.20 (antibody, human IgG1, kappa, V domains shown)
VH: RVQLQQSGAELVRPGASVTLSCKASGYTFTDSEMHWVKQTPVHGLEWIGAIDPEIDGTAYNQNFRDKAILTADKSSSTAYMELRSLTSEDSAVYYCTTYFGSGYGYFDVWGTGTTVTVSS
VL: DVVMTQTPLSLSVSLGDQASISCRSSQSLVYSNGNTYLHWFLQKPGQSPKLLIYKVSNRFSGVPDRFSGSGSGTDFTLKINRVEAEDLGVYFCSQSTHIPFTFGAGTKLELKR
notes: as for B1
B3: S009-F3.80.22 (antibody, human IgG1, kappa, V domains shown)
VH: QVQLQQSGAELVRPGASVTLSCKASGYTFTDYEIHWVKQTPVHGLEWIGAFDPEIGGSAYNQKFKDRATLTADKSSSTAYMELHSLTAEDSAVYYCTDYYGSSSGYFDVWGTGTTVTVSS
VL: B2 VL with S12P, V30E, Y31H, S32N, Q43H, N81S, I99V, A105S, L111I
notes: as for B1
B4: F2.39.3-H5 (scFv, not shown: small tags and cut ends)
scFv: EVQLVQSGAEVKKPGASVKVSCKASGYTFTNYWMHWVRQAPGQGLEWMGNINPSSGDSYYNERFMSRVTMTVDKSTSTAYMELSSLRSEDTAVYYCARSGGLWLAFWGQGTLVTVSSGGGGSGGGGSGGGGSDIVMTQSPDSLAVSLGERATINCKSSQTLLNSVSQNNYLAWYQQKPGQSPKLLIYFASTRESGVPDRFSGSGSGTDFTLTISSLQAEDVAVYYCQQHYRTPYTFGGGTKVEIK
notes: also called S009-F2.39.3 humanized VH2 + VL1

Tests used:
[1] = target: T1, human MSLN-R3-3 polypeptide (human); experiment: ELISA, coated antigen; antibody 0.0001 nM
T1 construct: also called human MSLN-R3-3 protein; hMSLN-R3-3

[2] = target: T2, human MSLN-R3-his protein (human, UniProt Q13421 487-598); experiment: ELISA, coated antigen; antibody 100 nM
T2 construct: also called human MSLN-R3 protein; hMSLN-R3-his; not shown: His tag
T2 sequence (Q13421 495-606): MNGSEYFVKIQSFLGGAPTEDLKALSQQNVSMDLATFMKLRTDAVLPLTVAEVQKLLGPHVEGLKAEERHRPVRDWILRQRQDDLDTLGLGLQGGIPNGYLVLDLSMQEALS

[3] = target: T3, human MSLN-R2-his protein (human, UniProt Q13421 391-486); experiment: ELISA, coated antigen; antibody 0.1 nM
T3 construct: also called human MSLN-R2 protein; hMSLN-R2-his; not shown: His tag
T3 sequence (Q13421 other isoform, or with tags, fused parts or gaps): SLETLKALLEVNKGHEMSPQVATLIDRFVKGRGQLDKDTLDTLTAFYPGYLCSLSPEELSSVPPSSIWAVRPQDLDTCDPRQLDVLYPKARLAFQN

[4] = target: T2, human MSLN-R3-his protein; experiment: ELISA, coated antigen; no antibody (blank, column 'none')
[5] = target: T1, human MSLN-R3-3 polypeptide; experiment: ELISA, coated antigen; antibody 0.001 nM
[6] = target: T1, human MSLN-R3-3 polypeptide; experiment: ELISA, coated antigen; no antibody (blank, column 'none')
[7] = target: T2, human MSLN-R3-his protein; experiment: ELISA, coated antigen; antibody 1 nM
[8] = target: T1, human MSLN-R3-3 polypeptide; experiment: ELISA, coated antigen; antibody 100 nM
[9] = target: T3, human MSLN-R2-his protein; experiment: ELISA, coated antigen; antibody 10 nM
[10] = target: T3, human MSLN-R2-his protein; experiment: ELISA, coated antigen; antibody 0.001 nM
[11] = target: T1, human MSLN-R3-3 polypeptide; experiment: ELISA, coated antigen; antibody 10 nM
[12] = target: T3, human MSLN-R2-his protein; experiment: ELISA, coated antigen; antibody 1 nM
[13] = target: T2, human MSLN-R3-his protein; experiment: ELISA, coated antigen; antibody 10 nM
[14] = target: T1, human MSLN-R3-3 polypeptide; experiment: ELISA, coated antigen; antibody 1 nM
[15] = target: T1, human MSLN-R3-3 polypeptide; experiment: ELISA, coated antigen; antibody 0.1 nM
[16] = target: T2, human MSLN-R3-his protein; experiment: ELISA, coated antigen; antibody 0.0001 nM
[17] = target: T3, human MSLN-R2-his protein; experiment: ELISA, coated antigen; antibody 100 nM
[18] = target: T3, human MSLN-R2-his protein; experiment: ELISA, coated antigen; no antibody (blank, column 'none')
[19] = target: T3, human MSLN-R2-his protein; experiment: ELISA, coated antigen; antibody 0.01 nM
[20] = target: T3, human MSLN-R2-his protein; experiment: ELISA, coated antigen; antibody 0.0001 nM
[21] = target: T2, human MSLN-R3-his protein; experiment: ELISA, coated antigen; antibody 0.001 nM
[22] = target: T1, human MSLN-R3-3 polypeptide; experiment: ELISA, coated antigen; antibody 0.01 nM
[23] = target: T2, human MSLN-R3-his protein; experiment: ELISA, coated antigen; antibody 0.1 nM
[24] = target: T2, human MSLN-R3-his protein; experiment: ELISA, coated antigen; antibody 0.01 nM
[25] = target: T4, human MSLN-hFc protein (Acro, Cat. No. MSN-H5253) (human, UniProt Q13421 296-580); experiment: ELISA, coated human MSLN-hFc, antibody 10 nM
T4 construct: bought protein; also called human MSLN full-length protein; not shown: human Fc (hFc) of the bought protein
T4 sequence (Q13421 other isoform, or with tags, fused parts or gaps limits assumed): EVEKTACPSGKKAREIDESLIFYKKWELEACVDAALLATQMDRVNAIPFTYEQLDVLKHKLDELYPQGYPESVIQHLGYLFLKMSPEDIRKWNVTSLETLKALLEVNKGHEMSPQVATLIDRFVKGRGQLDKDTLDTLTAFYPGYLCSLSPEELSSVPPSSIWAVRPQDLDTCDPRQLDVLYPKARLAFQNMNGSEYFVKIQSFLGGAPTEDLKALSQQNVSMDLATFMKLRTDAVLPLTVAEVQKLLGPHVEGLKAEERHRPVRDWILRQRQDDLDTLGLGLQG

[26] = target: T4, human MSLN-hFc protein (Acro, Cat. No. …); experiment: ELISA, coated human MSLN-hFc, antibody 0.1 nM
[27] = target: T4, human MSLN-hFc protein (Acro, Cat. No. …); experiment: ELISA, coated human MSLN-hFc, antibody 1 nM
[28] = target: T4, human MSLN-hFc protein (Acro, Cat. No. …); experiment: ELISA, coated human MSLN-hFc, antibody 0.0001 nM
[29] = target: T4, human MSLN-hFc protein (Acro, Cat. No. …); experiment: ELISA, coated human MSLN-hFc, antibody 0.001 nM
[30] = target: T4, human MSLN-hFc protein (Acro, Cat. No. …); experiment: ELISA, coated human MSLN-hFc, antibody 0.01 nM
[31] = target: T4, human MSLN-hFc protein (Acro, Cat. No. …); experiment: ELISA, coated human MSLN-hFc, antibody 100 nM

Binder | OD450 [1] [OD450] | OD450 [2] [OD450] | OD450 [3] [OD450] | OD450 [4] [OD450] | OD450 [5] [OD450] | OD450 [6] [OD450] | OD450 [7] [OD450] | OD450 [8] [OD450] | OD450 [9] [OD450] | OD450 [10] [OD450] | OD450 [11] [OD450] | OD450 [12] [OD450] | OD450 [13] [OD450] | OD450 [14] [OD450] | OD450 [15] [OD450] | OD450 [16] [OD450] | OD450 [17] [OD450] | OD450 [18] [OD450] | OD450 [19] [OD450] | OD450 [20] [OD450] | also measured
B1 | 0.07 | 2.36 | 0.05 | 0.06 | 0.1 | 0.07 | 1.78 | 2.3 | 0.07 | 0.05 | 1.95 | 0.05 | 1.98 | 1.75 | 1.46 | 0.06 | 0.09 | 0.07 | 0.05 | 0.06 | OD450 [21]: 0.1 OD450; OD450 [22]: 0.4 OD450; OD450 [23]: 1.43 OD450; OD450 [24]: 0.41 OD450
B2 | 0.07 | 2.06 | 0.06 | 0.09 | 0.09 | 0.07 | 1.88 | 2.07 | 0.17 | 0.06 | 1.9 | 0.09 | 1.83 | 1.83 | 0.96 | 0.07 | 0.09 | 0.07 | 0.06 | 0.06 | OD450 [21]: 0.1 OD450; OD450 [22]: 0.21 OD450; OD450 [23]: 1.07 OD450; OD450 [24]: 0.29 OD450
B3 | 0.08 | 2.02 | 0.06 | 0.08 | 0.15 | 0.08 | 1.91 | 1.93 | 0.17 | 0.06 | 1.91 | 0.06 | 1.88 | 1.84 | 1.47 | 0.08 | 0.06 | 0.07 | 0.07 | 0.07 | OD450 [21]: 0.12 OD450; OD450 [22]: 0.55 OD450; OD450 [23]: 1.55 OD450; OD450 [24]: 0.51 OD450
B4 |  |  |  |  |  |  |  |  |  |  |  |  |  |  |  |  |  |  |  |  | OD450 nm [25]: 1.21; OD450 nm [26]: 0.11; OD450 nm [27]: 0.39; OD450 nm [28]: 0.06; OD450 nm [29]: 0.06; OD450 nm [30]: 0.06; OD450 nm [31]: 1.87
